Holding throughout (experiment): EMSA; 0.5 mM αKG, 10 mM Mg2+, 2 mM ascorbate; EMSA: 50 mM Tris-HCl pH 8.0, 50 mM KCl, 10 mM MgCl2, 0.5 mM αKG, 2 mM Na ascorbate; 1.2 µM DNA, 0.4-12.8 µM protein; 10 min 37 °C then 5 min on ice; 10% native
What all share (details): protein: recombinant; tags: N-terminal His6; label: 5'-FAM on strand 1; blunt

In one data set the target is T1, ABH2 I168A (human, UniProt Q6NS38 1-261, I168A).
T1 sequence: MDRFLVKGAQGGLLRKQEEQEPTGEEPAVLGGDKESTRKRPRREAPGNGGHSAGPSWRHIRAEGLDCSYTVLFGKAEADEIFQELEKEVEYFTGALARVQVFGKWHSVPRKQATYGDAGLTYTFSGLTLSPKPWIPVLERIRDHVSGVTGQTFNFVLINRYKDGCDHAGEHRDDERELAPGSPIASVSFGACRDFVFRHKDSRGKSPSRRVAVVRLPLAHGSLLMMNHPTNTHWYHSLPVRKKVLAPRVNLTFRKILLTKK

A further data set has as its target T2, ABH2 Y122A (human, UniProt Q6NS38 1-261, Y122A).
T2 sequence: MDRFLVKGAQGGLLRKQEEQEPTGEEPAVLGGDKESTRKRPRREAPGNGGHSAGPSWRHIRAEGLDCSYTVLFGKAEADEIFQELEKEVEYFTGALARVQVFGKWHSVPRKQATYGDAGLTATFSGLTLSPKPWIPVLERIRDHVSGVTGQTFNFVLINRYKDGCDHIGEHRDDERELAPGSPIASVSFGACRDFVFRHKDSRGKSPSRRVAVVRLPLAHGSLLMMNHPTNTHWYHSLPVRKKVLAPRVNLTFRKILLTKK

The target of the next data set is T3, ABH2 D173A (human, UniProt Q6NS38 1-261, D173A).
T3 sequence: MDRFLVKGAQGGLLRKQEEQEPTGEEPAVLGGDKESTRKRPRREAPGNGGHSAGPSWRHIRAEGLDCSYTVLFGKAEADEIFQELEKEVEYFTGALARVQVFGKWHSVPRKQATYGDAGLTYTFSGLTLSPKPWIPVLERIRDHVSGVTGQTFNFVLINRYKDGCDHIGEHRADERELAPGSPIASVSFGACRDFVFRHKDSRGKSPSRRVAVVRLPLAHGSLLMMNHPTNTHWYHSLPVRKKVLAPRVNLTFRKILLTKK

B1: m1A (dsDNA)
DNA 1: AGTTCAATGATCTTCAT
DNA 2: ATGAAGATCATTGAACT
modifications: N1-methyladenine at position 10 of strand 1
B1: the Kd (commonly the constant that tells how readily two partners part at equilibrium) with ABH2 I168A worked out at 2700 ± 400 nM; with ABH2 Y122A, 2110 ± 80 nM; with ABH2 D173A, 2100 ± 90 nM.

B2: m3C (dsDNA)
DNA 1: AGTTCAATGATCTTCAT
DNA 2: ATGAAGATCATTGAACT
modifications: N3-methylcytosine at position 12 of strand 1
Regarding B2, the Kd with ABH2 I168A was found to be 4100 ± 100 nM; in the data set with ABH2 Y122A, 2490 ± 60 nM; in the data set with ABH2 D173A, 3090 ± 70 nM.

(Values after article PMC10377887, “Individual Contributions of Amido Acid Residues Tyr122, Ile168, and Asp173 to the Activity and Substrate Specificity of Human DNA Dioxygenase ABH2”.)
